Patent EP4635976A1 (Medigene Immunotherapies GmbH, dated 2025)

How the values were obtained:
Test in all cases: cell-based or functional assay
[1] = target: mismatched peptide #9 …
[2] = target: mismatched peptide #221 …
[3] = target: mismatched peptide #8 …
[4] = target: mismatched peptide #239 …
[5] = target: mismatched peptide #228 …
[6] = target: mismatched peptide #257 …
[7] = target: mismatched peptide #76 …
[8] = target: mismatched peptide #244 …
[9] = target: mismatched peptide #246 …
[10] = target: mismatched peptide #236 …
[11] = target: mismatched peptide #314 …
[12] = target: mismatched peptide #240 …
[13] = target: mismatched peptide #24 …
[14] = target: mismatched peptide #41 …
[15] = target: mismatched peptide #79 …
[16] = target: mismatched peptide #31 …
[17] = target: mismatched peptide #243 …
[18] = target: mismatched peptide #324 …
[19] = target: mismatched peptide #15 …
[20] = target: mismatched peptide #13 …
[21] = target: mismatched peptide #45 …
[22] = target: mismatched peptide #7 …
[23] = target: mismatched peptide #265 …
[24] = target: mismatched peptide #278 …
[25] = target: mismatched peptide #62 …
[26] = target: mismatched peptide #323 …
[27] = target: mismatched peptide #116 …
[28] = target: mismatched peptide #160 …
[29] = target: mismatched peptide #247 …

B1: NY-ESO specific TCR (T11.8-10-17), wild type (TCR)
TCR alpha: QKEVEQNSGPLSVPEGAIASLNCTYSDRGSQSFFWYRQYSGKSPELIMFIYSNGDKEDGRFTAQLNKASQYVSLLIRDSQPSDSATYLCAADDKIIFGKGTRLHILPNIQNPDPAVYQLRDSKSSDKSVCLFTDFDSQTNVSQSKDSDVYITDKTVLDMRSMDFKSNSAVAWSNKSDFACANAFNNSIIPEDTFFPSSDVPCDVKLVEKSFETDTNLNFQNLSVIGFRILLLKVAGFNLLMTLRLWSS
TCR beta: DAGVIQSPRHEVTEMGQEVTLRCKPISGHDYLFWYRQTMMRGLELLIYFNNNVPIDDSGMPEDRFSAKMPNASFSTLKIQPSEPRDSAVYFCASSRGGSGYTFGSGTRLTVVEDLNKVFPPEVAVFEPSKAEIAHTQKATLVCLATGFFPDHVELSWWVNGKEVHSGVSTDPQPLKEQPALNDSRYCLSSRLRVSATFWQNPRNHFRCQVQFYGLSENDEWTQDRAKPVTQIVSAEAWGRADCGITSASYHQGVLSATILYEILLGKATLYAVLVSALVLMAMVKRKDF
B1 was tested, and the “IFN-γ release (IFNg-ELISA), donor MIT 045” value [1] was 26.5 pg/mL, the “IFN-γ release (IFNg-ELISA), donor MIT038” value [2] was 789 pg/mL and the “IFN-γ release (IFNg-ELISA), donor MIT 045” value [2] was 101 pg/mL. The “IFN-γ release (IFNg-ELISA), donor MIT 045” value [3] was 24.7 pg/mL, the “IFN-γ release (IFNg-ELISA), donor MIT038” value [4] was 229 pg/mL and the “IFN-γ release (IFNg-ELISA), donor MIT 045” value [4] was 32.1 pg/mL. For the same binder, the “IFN-γ release (IFNg-ELISA), donor MIT038” value [5] was 234 pg/mL, the “IFN-γ release (IFNg-ELISA), donor MIT 045” value [5] was 35.4 pg/mL and the “IFN-γ release (IFNg-ELISA), donor MIT038” value [6] was 383 pg/mL. For the same binder, the “IFN-γ release (IFNg-ELISA), donor MIT 045” value [6] was 57.9 pg/mL, the “IFN-γ release (IFNg-ELISA), donor MIT038” value [7] was 769 pg/mL and the “IFN-γ release (IFNg-ELISA), donor MIT 045” value [7] was 150 pg/mL. For the same binder, the “IFN-γ release (IFNg-ELISA), donor MIT038” value [8] was 441 pg/mL, the “IFN-γ release (IFNg-ELISA), donor MIT 045” value [8] was 45.4 pg/mL and the “IFN-γ release (IFNg-ELISA), donor MIT038” value [9] was 321 pg/mL. For the same binder, the “IFN-γ release (IFNg-ELISA), donor MIT 045” value [9] was 40.9 pg/mL, the “IFN-γ release (IFNg-ELISA), donor MIT038” value [10] was 256 pg/mL and the “IFN-γ release (IFNg-ELISA), donor MIT 045” value [10] was 32.3 pg/mL. The “IFN-γ release (IFNg-ELISA), donor MIT 045” value [11] was 26.7 pg/mL, the “IFN-γ release (IFNg-ELISA), donor MIT038” value [12] was 237 pg/mL and the “IFN-γ release (IFNg-ELISA), donor MIT 045” value [12] was 23.4 pg/mL. The “IFN-γ release (IFNg-ELISA), donor MIT 045” value [13] was 24.3 pg/mL, the “IFN-γ release (IFNg-ELISA), donor MIT038” value [14] was 298 pg/mL and the “IFN-γ release (IFNg-ELISA), donor MIT 045” value [14] was 55.6 pg/mL. The “IFN-γ release (IFNg-ELISA), donor MIT038” value [15] was 292 pg/mL, the “IFN-γ release (IFNg-ELISA), donor MIT 045” value [15] was 40.3 pg/mL and the “IFN-γ release (IFNg-ELISA), donor MIT038” value [16] was 2130 pg/mL. The “IFN-γ release (IFNg-ELISA), donor MIT 045” value [16] was 887 pg/mL, the “IFN-γ release (IFNg-ELISA), donor MIT038” value [17] was 380 pg/mL and the “IFN-γ release (IFNg-ELISA), donor MIT 045” value [17] was 47.2 pg/mL. For the same binder, the “IFN-γ release (IFNg-ELISA), donor MIT038” value [18] was 432 pg/mL, the “IFN-γ release (IFNg-ELISA), donor MIT038” value [19] was 282 pg/mL and the “IFN-γ release (IFNg-ELISA), donor MIT 045” value [19] was 47.1 pg/mL. The “IFN-γ release (IFNg-ELISA), donor MIT 045” value [20] was 20.8 pg/mL, the “IFN-γ release (IFNg-ELISA), donor MIT038” value [21] was 1500 pg/mL and the “IFN-γ release (IFNg-ELISA), donor MIT 045” value [21] was 177 pg/mL. The “IFN-γ release (IFNg-ELISA), donor MIT 045” value [22] was 24 pg/mL, the “IFN-γ release (IFNg-ELISA), donor MIT038” value [23] was 366 pg/mL and the “IFN-γ release (IFNg-ELISA), donor MIT 045” value [23] was 43.2 pg/mL. The “IFN-γ release (IFNg-ELISA), donor MIT038” value [24] was 464 pg/mL, the “IFN-γ release (IFNg-ELISA), donor MIT 045” value [24] was 50.8 pg/mL and the “IFN-γ release (IFNg-ELISA), donor MIT038” value [25] was 819 pg/mL. For the same binder, the “IFN-γ release (IFNg-ELISA), donor MIT 045” value [25] was 88.3 pg/mL, the “IFN-γ release (IFNg-ELISA), donor MIT038” value [26] was 3700 pg/mL and the “IFN-γ release (IFNg-ELISA), donor MIT 045” value [26] was 658 pg/mL. The “IFN-γ release (IFNg-ELISA), donor MIT 045” value [27] was 32.4 pg/mL, the “IFN-γ release (IFNg-ELISA), donor MIT038” value [28] was 3620 pg/mL and the “IFN-γ release (IFNg-ELISA), donor MIT 045” value [28] was 1290 pg/mL. For the same binder, the “IFN-γ release (IFNg-ELISA), donor MIT038” value [29] was 681 pg/mL and the “IFN-γ release (IFNg-ELISA), donor MIT 045” value [29] was 80.5 pg/mL.
